Experimental data taken from patent US20250145722A1, “ANTI-GAL3 ANTIBODIES AND METHODS OF USE” (TrueBinding, Inc., priority 2020, published 2025).

Columns and labels:
[1] = molecular target: T1, interaction of Gal3 and APP695 (Homo sapiens, UniProt P17931); assay: Gal3-APP695 blocking ELISA; format: binding
T1 construct: purchased R&D Systems; QCB200349; QCB200352; host or cells: mammalian (R&D 8259-GA) or E. coli (QCB200349)
Procedure: To identify Gal3-targeted antibodies with the ability to block the interaction of Gal3 and APP695, purified Gal3 and APP695 proteins were incubated in the presence (or absence) of various Gal3-targeted or control antibodies, or without antibody, and protein interaction was evaluated by ELISA.
Human GAL3 (mammalian, R&D Systems, 8259-GA; E-coli derived, untagged, TrueBinding, QCB200349; or His-tagged, TrueBinding, QCB200352) was diluted in PBS (Corning, 21-030-CM) to a concentration of 4 μg/mL and added to the wells of a 96-well ELISA plate (Thermo Fisher, 44-2404-21). After incubating the plate at 4° C. overnight, the plate was washed three times with PBST (PBS with 0.05% Tween 20 [VWR, 0777]) and then blocked for an hour with 2% BSA (EMD Millipore, 126609) in PBST at room temperature with gentle rocking. Human APP695 (R&D Systems, 9937-AP) was biotinylated with EZ Link Sulfo-NHS-LC-Biotin (ThermoFisher Scientific, A39257) and desalted using a Zeba Spin Desalting Column (ThermoFisher Scientific, 89882), following the manufacturer's instructions. […] The reaction was stopped with 1M HCl (JT Baker, 5620-02) and read using a plate reader (Molecular Devices) at absorbance of 450 nm. Percent blockade of Gal3-APP695 interaction was calculated as the fraction of signal obtained in the absence of antibody with the background signal subtracted.

human Gal3 = molecular target: T2, human Gal3 (Homo sapiens, UniProt P17931); assay: Epitope binning assay, sandwich format, SPR-based Carterra LSA; settings: competitive binding for hGAL3
T2 construct: purchased AcroBio (Acro Biosystems) GA3-H5129
T2 sequence (P17931 whole entry): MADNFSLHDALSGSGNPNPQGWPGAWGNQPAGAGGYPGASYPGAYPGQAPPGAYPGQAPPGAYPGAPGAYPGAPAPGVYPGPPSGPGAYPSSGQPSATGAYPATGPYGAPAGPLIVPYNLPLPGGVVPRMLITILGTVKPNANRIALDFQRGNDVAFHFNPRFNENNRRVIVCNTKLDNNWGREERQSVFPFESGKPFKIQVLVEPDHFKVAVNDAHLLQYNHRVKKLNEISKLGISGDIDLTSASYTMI
Procedure: First, the purified antibodies were diluted to 10 μg/ml concentration in 10 mM NaOAc (pH 5.0) and then were covalently coupled via amine group to HC200M chip activated by EDC and S-NHS to immobilize antibodies to different positions of a 384-spot array. One hundred thirty-eight binning cycles were run on the array of immobilized antibodies. In each cycle, first, human Gal3 (AcroBio GA3-H5129) was injected over the entire array to bind to different antibodies (primary antibody), followed by one antibody (secondary antibody) selected among the panel of 150 anti-GAL3 antibodies tested. At the end of each cycle, the array was regenerated by 10 mM Glycine (pH 2.0) to remove bound antigen and secondary antibody from the array. The data analysis was done using the Epitope software by CarterraBio.

T1 sequence (P17931 2-250 limits assumed): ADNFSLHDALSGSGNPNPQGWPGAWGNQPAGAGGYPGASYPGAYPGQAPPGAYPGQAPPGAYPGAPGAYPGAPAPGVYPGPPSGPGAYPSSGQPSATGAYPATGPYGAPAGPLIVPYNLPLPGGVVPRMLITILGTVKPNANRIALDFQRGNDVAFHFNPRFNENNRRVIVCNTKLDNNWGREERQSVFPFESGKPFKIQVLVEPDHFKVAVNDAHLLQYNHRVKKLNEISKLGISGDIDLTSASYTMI

Blocking of Gal3-APP695 binding (in words) [1]	Epitope bin (human Gal3)	Molecule
did not impact		F849C.8D12: anti-Gal3 antibody (antibody, V domains shown, misc_feature 1..363 849.8D12 VH nucleic acid; misc_feature 1..318 849.8D12 VL nucleic acid, anti-Gal3 antibody) VH: EVQLQQSGPELVKPGSSVKISCKASRYTFTDYNMDWVKQSHGKRLEWIGYIYPNNGGTGYNQKFKGKATLTVDKSSSTAYMELRSLTSEDSAVYYCARSYYDGSYDAMDYWGQGTSVTVSS VL: DIQMTQTTSSLSASLGDRVTISCSASQGISNYLNWYQQKPDGTVKLLIYYTSSLHSGVPSRFSGSGSGTDYSLTISNLEPEDIATYYCQQYSKLPRTFGGGTKLEI
	bin 16	846.2B11: anti-Gal3 antibody (antibody, V domains shown, misc_feature 1..354 846.2B11 VH nucleic acid; misc_feature 1..333 846.2B11 VL nucleic acid, anti-Gal3 antibody) VH: QVQLQQSGPELVRPGALVKISCKASGYTFTSYDINWVKQRPGQGLEWIGWIYPGDGSTKYNEKFKGKATLTADKSSSTAYMQLSSLTSENSAVYFCAREAASNAMDYWGQGTSVTVSS VL: DIVLTQSPASLGVSLGQRATISCRASKSVSTSGYSYMHWYQQKPGQPPKLLIYLASILESGVPARFSGSGSGTDFTLNIHPVEEEDAAIYYCQHSRELPLTFGAGTKLELK
